Laboratory results published in article PMC8618880, “Discovery of GOT1 Inhibitors from a Marine-Derived Aspergillus terreus That Act against Pancreatic Ductal Adenocarcinoma” (Marine Drugs, 2021).

Target: the molecule itself
Experiment: crystal structure; GOT1 (16 mg/mL) mixed with 40 uM AH, sitting-drop vapor diffusion, 18 °C, 0.1 M HEPES pH 7.5, 12% w/v PEG 3350; 2.6 Å; two subunits (chains A and B) form the dimer

B1: glutamic oxaloacetate transaminase 1 (GOT1) (enzyme, human)
chain: PPSVFAEVPQAQPVLVFKLTADFREDPDPRKVNLGVGAYRTDDCHPWVLPVVKKVEQKIANDNSLNHEYLPILGLAEFRSCASRLALGDDSPALKEKRVGGVQSLGGTGALRIGADFLARWYNGTNNKNTPVYVSSPTWENHNAVFSAAGFKDIRSYRYWDAEKRGLDLQGFLNDLENAPEFSIVVLHACAHNPTGIDPTPEQWKQIASVMKHRFLFPFFDSAYQGFASGNLERDAWAIRYFVSEGFEFFCAQSFSKNFGLYNERVGNLTVVGKEPESILQVLSQMEKIVRITWSNPPAQGARIVASTLSNPELFEEWTGNVKTMADRILTMRSELRARLEALKTPGTWNHITDQIGMFSFTGLNPKQVEYLVNEKHIYLLPSGRINVSGLTTKNLDYVATSIHEAVTKIQ
modifications: in the crystal: C17 atom of AH covalently linked to the N atom of Lys259 in chain A; PLP in chain B
notes: GOT1, expression construct pET26b-got1; Domains described in the structure span residues 17-411; also called WT-GOT1; glutamic-oxaloacetic transaminase 1; source: E. coli BL21 (DE3), purified (HisTrap FF, Resource Q, Superdex200 Increase)
  binding result: binds
